Where no end group is shown, it is not given here.
Key:
006 PSMA Fab [1] = biological target: T1, 006 PSMA Fab; assay: phage binding ELISA; biotinylated PSMA Fab on neutravidin plate pre-incubated with PSMA antigen as competitor, clonal phage supernatant, anti-M13 HRP detection
T1 construct: also called Anti-PSMA Fab
Method: (§1) Clonal phage were harvested as crude supernatants and screened via standard ELISAs. […] Prior to the addition of clonal phage. wells were incubated with blocking buffer and PSMA antigen or blocking buffer alone. Without washing or aspirating, clonal phage supernatants were then added to the wells and incubated for a short time. Wells were then washed followed by detection of bound phage using a horse radish conjugated anti-M13 antibody.

006 PSMA Fab [2] = biological target: T1, 006 PSMA Fab; assay: phage binding ELISA; biotinylated PSMA Fab on neutravidin plate, clonal phage supernatant, anti-M13 HRP detection; blocking buffer alone;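 also: before phage were added, wells were preincubated with blocking buffer either containing PSMA antigen or without it, and phage were then added with no wash in between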
Method: as §1

PSMA Fab (006 PSMA Fab) [3] = biological target: T2, PSMA Fab (006 PSMA Fab); assay: clonal phage ELISA; biotinylated PSMA Fab on neutravidin plate, wells pre-incubated with PSMA antigen (competitor), anti-M13-HRP detection
T2 construct: also called Anti-PSMA Fab; anti-PSMA Fab
Method: as §1

PSMA Fab (006 PSMA Fab) [4] = biological target: T2, PSMA Fab (006 PSMA Fab); assay: clonal phage ELISA; biotinylated PSMA Fab on neutravidin plate, blocking buffer alone, anti-M13-HRP detection;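 also: crude clonal phage supernatants added without washing to wells preincubated with PSMA antigen or with blocking buffer alone, briefly incubated, then washed before bound phage detection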
Method: as §1

[5] = biological target: PSMA Fab (anti-PSMA Fab; 006 PSMA Fab); assay: phage binding ELISA; clonal phage supernatant on biotinylated PSMA Fab captured on neutravidin plate; anti-M13 HRP detection
Method: as §1

[6] = biological target: PSMA Fab (anti-PSMA Fab; 006 PSMA Fab); assay: phage binding ELISA on captured PSMA Fab; wells first incubated with PSMA antigen as competitor; anti-M13 HRP detection
Method: as §1

Row | Binder | Phage binding ELISA signal, Anti-PSMA Fab in presence of PSMA antigen (PSMA Fab (006 PSMA Fab) [3]) | Phage binding ELISA signal, Anti-PSMA Fab (PSMA Fab (006 PSMA Fab) [4]) | Phage binding ELISA signal, Anti-PSMA Fab [5] | Phage binding ELISA signal, Anti-PSMA Fab with PSMA antigen [6] | other results
1 | EQMWCTPAWMCTGF [Phage-2705] |  |  |  |  | Phage binding ELISA signal, Anti-PSMA Fab with PSMA antigen (006 PSMA Fab [1]): 0.0782; Phage binding ELISA signal, Anti-PSMA Fab (006 PSMA Fab [2]): 0.81
2 | DMHWCTPQWMCAPL (cysteine pairing not given here; also: displayed on bacteriophage as fusion to pIII, linker not given here) [Phage-2719] | 0.0856 | 0.771 |  |  | 
3 | VNPSCTPSWMCLGL [Phage-2728 (Peptide-180 library clone)] |  |  | 0.739 | 0.0793 | 
4 | NTHWCTPSWMCSAW (cysteine pairing not given here; also: displayed on bacteriophage as fusion to pIII, linker not given here) [Phage-2713] | 0.0816 | 0.789 |  |  | 
5 | QMPLCIPQWMCTNN [Phage-2734 (Peptide-180 library clone)] |  |  | 0.723 | 0.0562 | 
6 | MDRWCTPAWMCEVH [Phage-2708] |  |  |  |  | Phage binding ELISA signal, Anti-PSMA Fab with PSMA antigen (006 PSMA Fab [1]): 0.0734; Phage binding ELISA signal, Anti-PSMA Fab (006 PSMA Fab [2]): 0.794
7 | TNNWCIPSWMCDIR [Phage-2737 (Peptide-180 library clone)] |  |  | 0.718 | 0.0629 | 
8 | NVSMCIPNWMCVGL (cysteine pairing not given here; also: displayed on bacteriophage as fusion to pIII, linker not given here) [Phage-2711] | 0.0891 | 0.791 |  |  | 
9 | INKWCTPAWMCDLS [Phage-2726 (Peptide-180 library clone)] |  |  | 0.747 | 0.0937 | 
10 | VSNWCKPAWMCGTT [Phage-2731 (Peptide-180 library clone)] |  |  | 0.733 | 0.079 | 
11 | WEKWCTPPWMCHDM [Phage-2732 (Peptide-180 library clone)] |  |  | 0.733 | 0.0669 | 
12 | EYTWCKPAWMCDGV (cysteine pairing not given here; also: displayed on bacteriophage as fusion to pIII, linker not given here) [Phage-2717] | 0.0742 | 0.774 |  |  | 
13 | NVKWCVPHWMCEVS [Phage-2721] | 0.0649 | 0.765 |  |  | 
14 | MEKMCTPQWMCDMW [Phage-2725 (Peptide-180 library clone)] |  |  | 0.749 | 0.0732 | 
15 | LYNRCTPAWMCTGF [Phage-2729 (Peptide-180 library clone)] |  |  | 0.738 | 0.0657 | 
16 | WQKWCTPMWMCEAT [Phage-2727 (Peptide-180 library clone)] |  |  | 0.744 | 0.0785 | 
17 | DHKWCTPPWMCAAD (cysteine pairing not given here; also: displayed on bacteriophage as fusion to pIII) [Phage-2707] |  |  |  |  | Phage binding ELISA signal, Anti-PSMA Fab with PSMA antigen (006 PSMA Fab [1]): 0.0877; Phage binding ELISA signal, Anti-PSMA Fab (006 PSMA Fab [2]): 0.797
18 | DQKWCIPLWMCETR [Phage-2722] | 0.0727 | 0.762 |  |  | 

Row | Binder | Phage binding ELISA signal, Anti-PSMA Fab in presence of PSMA antigen (PSMA Fab (006 PSMA Fab) [3]) | Phage binding ELISA signal, Anti-PSMA Fab (PSMA Fab (006 PSMA Fab) [4]) | Phage binding ELISA signal, Anti-PSMA Fab [5] | Phage binding ELISA signal, Anti-PSMA Fab with PSMA antigen [6] | other results
19 | EMKWCKPEWMCPWM [Phage-2730 (Peptide-180 library clone)] |  |  | 0.733 | 0.0688 | 
20 | WENWCRPSWMCEDT (cysteine pairing not given here; also: displayed on bacteriophage as fusion to pIII, linker not given here) [Phage-2712] | 0.0568 | 0.79 |  |  | 
21 | TIKWCTPSWMCAEI (cysteine pairing not given here; also: displayed on bacteriophage as fusion to pIII) [Phage-2703] |  |  |  |  | Phage binding ELISA signal, Anti-PSMA Fab with PSMA antigen (006 PSMA Fab [1]): 0.105; Phage binding ELISA signal, Anti-PSMA Fab (006 PSMA Fab [2]): 0.811
22 | PDNWCIPAWMCERF [Phage-2709] |  |  |  |  | Phage binding ELISA signal, Anti-PSMA Fab with PSMA antigen (006 PSMA Fab [1]): 0.0679; Phage binding ELISA signal, Anti-PSMA Fab (006 PSMA Fab [2]): 0.793
23 | IVKWCTPAWMCDQQ [Phage-2736 (Peptide-180 library clone)] |  |  | 0.72 | 0.0809 | 
24 | HEKWCVPSWMCDDW (cysteine pairing not given here; also: displayed on bacteriophage as fusion to pIII, linker not given here) [Phage-2714] | 0.0669 | 0.784 |  |  | 
25 | TQKWCIPAWMCAER (cysteine pairing not given here; also: displayed on bacteriophage as fusion to pIII, linker not given here) [Phage-2718] | 0.0702 | 0.774 |  |  | 
26 | VYKWCTPSWMCADP (cysteine pairing not given here; also: displayed on bacteriophage as fusion to pIII, linker not given here) [Phage-2715] | 0.0676 | 0.779 |  |  | 
27 | DYKWCTPMWMCEVV [Phage-2723] | 0.0761 | 0.753 |  |  | 
28 | DYKWCTPPWMCYSA [Phage-2706] |  |  |  |  | Phage binding ELISA signal, Anti-PSMA Fab with PSMA antigen (006 PSMA Fab [1]): 0.0621; Phage binding ELISA signal, Anti-PSMA Fab (006 PSMA Fab [2]): 0.804
29 | DIKWCTPSWMCPAK [Phage-2733 (Peptide-180 library clone)] |  |  | 0.729 | 0.0862 | 
30 | DWKWCTPSWMCAQK (cysteine pairing not given here; also: displayed on bacteriophage as fusion to pIII, linker not given here) [Phage-2720] | 0.0639 | 0.769 |  |  | 
31 | VANWCTPKWMCEHV (cysteine pairing not given here; also: displayed on bacteriophage as fusion to pIII, linker not given here) [Phage-2716] | 0.0631 | 0.777 |  |  | 
32 | EWKWCTPPWMCTTN [Phage-2724] | 0.0835 | 0.752 |  |  | 
33 | SVKWCTPPWMCTGL (cysteine pairing not given here; also: displayed on bacteriophage as fusion to pIII, linker not given here) [Phage-2710] | 0.0767 | 0.792 |  |  | 
34 | VGNWCIPLWMCAAE (cysteine pairing not given here; also: displayed on bacteriophage as fusion to pIII) [Phage-2704] |  |  |  |  | Phage binding ELISA signal, Anti-PSMA Fab with PSMA antigen (006 PSMA Fab [1]): 0.0867; Phage binding ELISA signal, Anti-PSMA Fab (006 PSMA Fab [2]): 0.81
35 | HGKLCTPSWMCNGF [Phage-2735 (Peptide-180 library clone)] |  |  | 0.721 | 0.0619 | 
